Experimental data as given in patent US20020098523A1 (CAMBRIDGE ANTIBODY TECHNOLOGY, published 2002).

B1: CAT-213 (antibody, V domains shown)
VH: QVQLVQSGGGVVQPGRSLRLSCAASGFTFSSYGMHWVRQAPGKGLEWVAVISYDGSIKHYADSVKGRFTISRDNSKNTLYLQMNSLRTDDTAVYYCAGDTDYGDIDPWGQGTMVTVSS
VL: DIQMTQSPSSVSASVGDRVTITCRASQDISSWLAWYQQKPGKAPKLLIYAASSLQSGVPSRFSGSGSGTDFTLTISSLQPEDFATYYCQQASSFPSITFGQGTRLEIKR
notes: Expressed in NS0 cells and purified on Protein A
B2: Mouse eotaxin (ligand, UniProt P48298 24-97, looked up)
chain: HPGSIPTSCCFIMTSKKIPNTLLKSYKRITNNRCTLKAIVFKTRLGKEICADPKKKWVQDATKHLDQKLQTPKP
notes: also called murine eotaxin

Legend:
Rhesus monkey eotaxin = Rhesus monkey eotaxin (rhesus monkey, UniProt Q8MIT7 24-97, limits assumed); assay: cell-based or functional assay
Sequence of Rhesus monkey eotaxin (Q8MIT7 24-97 limits assumed): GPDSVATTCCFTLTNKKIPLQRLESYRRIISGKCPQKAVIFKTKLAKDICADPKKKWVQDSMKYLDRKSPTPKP

Human eotaxin [1] = target: T1, Human eotaxin (human, UniProt P51671 24-97, 125-iodine label in the Flash Plate assays; site not given); assay: cell-based or functional assay
T1 sequence (P51671 24-97 limits assumed): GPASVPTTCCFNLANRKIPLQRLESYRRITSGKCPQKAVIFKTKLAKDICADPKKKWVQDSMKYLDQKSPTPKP

Mouse eotaxin = target: B2; assay: cell-based or functional assay
Human eotaxin [2] = target: T1, Human eotaxin; assay: Flash Plate scintillation competition: soluble CAT-213 against coated CAT-212 (competitor) for [125I]eotaxin; mean of 4 estimates
Method: The Flash Plate assay was performed essentially as described in Example 6.

CAT-212 = target: T2, CAT-212; assay: Flash Plate scintillation competition: unlabelled mouse eotaxin against [125I]eotaxin for coated CAT-212; mean of two estimates
T2 construct: Human scFv; IMAC-purified soluble scFv in the Western blot and Flash Plate assays; FPLC-purified monomeric scFv in the chemotaxis assay
Method: Flash Plate™ was prepared as described in Example 6. Eleven serial one in three dilutions of unlabelled human and mouse Eotaxin (R&D) in Assay Buffer and mixed with ¹²⁵I-Eotaxin prepared at an estimated concentration of 30 pM and 100 μl added to the wells in duplicate. The plate was sealed and incubated at room temperature for two hours, counted and the data processed as described in Example 6.

Binder | geometric mean IC50, inhibition of rhesus monkey eotaxin-mediated chemotaxis of L1.2-CCR3 cells (Rhesus monkey eotaxin) [nM] | IC50, inhibition of eotaxin-mediated chemotaxis of CCR3-transfected L1.2 cells (Human eotaxin [1]) [nM] | geometric mean IC50, inhibition of eotaxin-evoked shape change of human eosinophils (Human eotaxin [1]) [nM] | geometric mean IC50, inhibition of eotaxin-mediated chemotaxis of human eosinophils (Human eotaxin [1]) [nM] | geometric mean IC50, inhibition of mouse eotaxin-mediated chemotaxis of L1.2-CCR3 cells (Mouse eotaxin) [nM] | IC50 (Human eotaxin [2]) [nM] | IC50 (CAT-212) [nM]
B1 | 303 | 0.7 | 0.714 | 1.53 | 2630 | 0.0593 | 
B2 |  |  |  |  |  |  | 296
